Source: PMC6220978, “Induced conformational changes activate the peptidoglycan synthase PBP1B” (Molecular Microbiology, 2018)

Target: T1, PBP1B (wild type, PBP1B^46-844) (E. coli, UniProt P02919 46-844)
T1 sequence (looked up): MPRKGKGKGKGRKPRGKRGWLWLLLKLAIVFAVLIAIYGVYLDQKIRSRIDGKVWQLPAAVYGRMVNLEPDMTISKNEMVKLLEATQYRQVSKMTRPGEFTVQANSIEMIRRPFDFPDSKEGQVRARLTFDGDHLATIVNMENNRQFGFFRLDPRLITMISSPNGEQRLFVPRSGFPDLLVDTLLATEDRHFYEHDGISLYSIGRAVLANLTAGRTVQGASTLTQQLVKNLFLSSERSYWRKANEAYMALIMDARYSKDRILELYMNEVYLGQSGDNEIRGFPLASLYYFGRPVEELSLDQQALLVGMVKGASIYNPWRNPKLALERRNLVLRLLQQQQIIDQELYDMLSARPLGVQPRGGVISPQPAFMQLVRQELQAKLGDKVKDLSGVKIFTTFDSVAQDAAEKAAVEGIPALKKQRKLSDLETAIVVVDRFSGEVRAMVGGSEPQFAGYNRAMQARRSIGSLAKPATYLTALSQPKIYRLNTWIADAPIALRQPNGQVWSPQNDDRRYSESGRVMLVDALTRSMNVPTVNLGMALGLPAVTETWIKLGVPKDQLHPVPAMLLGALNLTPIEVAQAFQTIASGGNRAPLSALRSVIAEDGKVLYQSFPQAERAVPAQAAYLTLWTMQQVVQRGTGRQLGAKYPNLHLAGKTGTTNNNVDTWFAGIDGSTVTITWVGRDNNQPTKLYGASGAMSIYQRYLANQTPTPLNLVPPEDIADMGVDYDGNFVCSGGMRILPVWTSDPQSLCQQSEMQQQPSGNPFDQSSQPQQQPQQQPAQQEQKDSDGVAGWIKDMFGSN
Assay: cell-based or functional assay

B1: LpoB (natural protein, E. coli)
chain: VGQREPAPVEEVKPAPEQPAEPQQPVPTVPSVPTIPQQPGPIEHEDQTAPPAPHIRHYDWNGAMQPMVSKMLGADGVTAGSVLLVDSVNNRTNGSLNAAEATETLRNALANNGKFTLVSAQQLSMAKQQLGLSPQDSLGTRSKAIGIARNVGAHYVLYSSASGNVNAPTLQMQLMLVQTGEIIWSGKGAVSQQ
notes: LpoB, E. coli; also called lipoprotein LpoB; source: E. coli BL21(DE3), purified (HisTrap, Superdex 200), as in Egan et al. 2014
GTase rate of WT PBP1B with LpoB relative to the basal rate of WT PBP1B (continuous fluorescence assay, dansylated lipid II; 0.5 μM PBP1B, 2 μM LpoB): 10.2 fold
